Drawing on publication PMC4231748, “Human PrimPol mutation associated with high myopia has a DNA replication defect”, this text covers Kd for one molecule.

The target in this series is T1, PrimPolY89D1-354 (polymerase domain) (human, UniProt Q96LW4 1-354, Y89D).
T1 sequence: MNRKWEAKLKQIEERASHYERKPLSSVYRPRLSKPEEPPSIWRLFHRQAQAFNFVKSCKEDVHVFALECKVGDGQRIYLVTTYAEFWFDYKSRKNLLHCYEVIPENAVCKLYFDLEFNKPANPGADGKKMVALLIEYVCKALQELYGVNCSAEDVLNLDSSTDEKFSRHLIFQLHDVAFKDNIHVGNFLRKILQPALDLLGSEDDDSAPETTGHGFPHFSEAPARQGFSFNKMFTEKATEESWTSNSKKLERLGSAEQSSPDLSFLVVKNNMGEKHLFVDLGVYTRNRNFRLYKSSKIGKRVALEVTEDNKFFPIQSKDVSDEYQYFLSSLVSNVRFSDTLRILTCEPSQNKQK
As to the kind of experiment: EMSA; 10 mM Mg2+; EMSA: 60 nM DNA, 10 mM Bis-Tris-Propane-HCl pH 7.0, 10 mM MgCl2, 1 mM DTT, 25 C, 60 min; 5% polyacrylamide gel in 0.5x TBE. Particulars: protein: recombinant; label: 5'-Hex on strand 1 (HP-20); 20 bp duplex, 5' overhang 30 nt on template strand (S12), other end blunt. (In general: A gel shift assay detects complexes by their altered migration in electrophoresis.)

B1: Overhanging DNA substrate (HP-20 primer / ND-50 TemplateTT) (dsDNA)
DNA 1: TGTCGTCTGTTCGGTCGTTC
DNA 2: CGCGCAGGGCGCACAACAGCCTTGAAGACCGAACGACCGAACAGACGACA
Usually Kd stands for the free concentration of one partner at which half of the binding sites on the other are occupied at equilibrium, for simple one-to-one binding. As to B1, the Kd is 2550 nM.
